Assay results taken from the Immune Epitope Database (IEDB).

How the values were obtained:
HLA-A*02:03 = assay: IEDB peptide-MHC binding, purified MHC/competitive/radioactivity; ≥ and ≤ were set here for values at or beyond the usual limits of such assays
HLA-A*68:02 [1] = assay: as above
HLA-A*02:02 = assay: as above
HLA-A*02:01 [2] = assay: IEDB peptide-MHC binding, cellular MHC/competitive/fluorescence; ≥ and ≤ were set here for values at or beyond the usual limits of such assays
HLA-A*02:06 = assay: as above
HLA-A*02:01 [3] = assay: IEDB peptide-MHC binding, purified MHC/competitive/radioactivity; ≥ and ≤ were set here for values at or beyond the usual limits of such assays
HLA-A*68:02 [4] = assay: IEDB peptide-MHC binding, cellular MHC/competitive/fluorescence; ≥ and ≤ were set here for values at or beyond the usual limits of such assays
[5] = source organism: Vaccinia virus WR
[6] = source organism: Mammarenavirus whitewaterense
[7] = source organism: Influenza A virus
[8] = source organism: Hepacivirus hominis
[9] = source organism: Mammarenavirus lassaense
[10] = source organism: Mammarenavirus choriomeningitidis

| Sequence | IC50 (HLA-A*02:03; [5]) | IC50 (HLA-A*68:02 [1]; [5]) | IC50 (HLA-A*02:02; [5]) | IC50 (HLA-A*02:01 [2]; [5]) | IC50 (HLA-A*02:06; [5]) | also measured |
| --- | --- | --- | --- | --- | --- | --- |
| EMKYALINL | 63 nM | 2470 nM | 3060 nM | 41200 nM | ≥ 70000 nM |  |
| TLFIDRGSI | 802 nM | 181 nM | 2100 nM | 17700 nM | ≥ 70000 nM |  |
| ELLEMKYAL | 863 nM | 1520 nM | 952 nM |  | 6020 nM | IC50 (HLA-A*02:01 [3]; [5]): 281 nM |
| IVSLCPTKKL | 29 nM | 520 nM | 9.5 nM | 9970 nM | 28500 nM |  |
| ELKDLLNVT | 209 nM | 2780 nM | 1540 nM | 51600 nM | 38500 nM |  |
| IQKDINITHT | 340 nM | 4990 nM | 1360 nM | 37400 nM | 61700 nM |  |
| NTNQGNILM | 1150 nM | 664 nM | 1700 nM |  | 5940 nM | IC50 (HLA-A*02:01 [3]; [5]): 4580 nM |
| KVYNGIFVDT | 1440 nM | 1380 nM | 111 nM | 11800 nM | 16400 nM |  |
| HMYRGGNGNT | 423 nM | 3260 nM | 2020 nM | 19300 nM | 9870 nM |  |
| TIAVSVYGAI | 582 nM | 618 nM | 1550 nM |  | 5390 nM | IC50 (HLA-A*02:01 [3]; [5]): 2560 nM |
| LDFAKVASV |  |  |  |  |  | IC50 (HLA-A*02:03; [6]): 453 nM; IC50 (HLA-A*02:01 [3]; [6]): 4740 nM; IC50 (HLA-A*68:02 [1]; [6]): 296 nM; IC50 (HLA-A*02:02; [6]): 61 nM; IC50 (HLA-A*02:06; [6]): 10600 nM |
| EVTPEYIKDL | 2270 nM | 1230 nM | 1520 nM | 6500 nM | 7680 nM |  |
| ELSRLRYNL | 254 nM | 1 nM | 0.93 nM |  | 18600 nM | IC50 (HLA-A*02:01 [3]; [5]): 726 nM |
| LINLVQYRI | 583 nM | 1730 nM | 311 nM | 5900 nM | 5340 nM |  |
| ELWARISSSL | 324 nM | 22 nM | 175 nM |  | 9300 nM | IC50 (HLA-A*02:01 [3]; [5]): 1320 nM |
| CLKNEGVSGL | 25 nM | 2080 nM | 127 nM | 6300 nM | 14100 nM |  |
| ALANTIEV |  |  |  |  |  | IC50 (HLA-A*02:03; [7]): 59 nM; IC50 (HLA-A*02:02; [7]): 162 nM; IC50 (HLA-A*68:02 [4]; [7]): 59300 nM; IC50 (HLA-A*02:06; [7]): 9130 nM |
| GTSGVESAV |  |  |  |  |  | IC50 (HLA-A*02:03; [7]): 3010 nM; IC50 (HLA-A*68:02 [1]; [7]): 683 nM; IC50 (HLA-A*02:02; [7]): 1100 nM; IC50 (HLA-A*02:01 [2]; [7]): 10800 nM; IC50 (HLA-A*02:06; [7]): 11400 nM |

| Sequence | IC50 (HLA-A*02:03; [5]) | IC50 (HLA-A*68:02 [1]; [5]) | IC50 (HLA-A*02:02; [5]) | IC50 (HLA-A*02:01 [2]; [5]) | IC50 (HLA-A*02:06; [5]) | also measured |
| --- | --- | --- | --- | --- | --- | --- |
| LLGLILFVL | 1860 nM | 906 nM | 266 nM |  | 8130 nM | IC50 (HLA-A*02:01 [3]; [5]): 724 nM |
| MLHNPTSET | 184 nM | 1570 nM | 4210 nM | 13700 nM | ≥ 70000 nM |  |
| VLIVMLLFA |  |  |  |  |  | IC50 (HLA-A*02:03; [8]): 435 nM; IC50 (HLA-A*02:01 [3]; [8]): 2360 nM; IC50 (HLA-A*68:02 [1]; [8]): 4550 nM; IC50 (HLA-A*02:02; [8]): 1620 nM; IC50 (HLA-A*02:06; [8]): 8420 nM |
| IADIRDKYM | 230 nM | 3110 nM | 63 nM | 11400 nM | 57800 nM |  |
| FLVIAINAM |  |  |  |  | ≥ 70000 nM | IC50 (HLA-A*68:02 [4]; [5]): 23300 nM |
| VISTIANSNI | 845 nM | 788 nM | 282 nM | 7800 nM | 5160 nM |  |
| AAAKTPVIV | 1420 nM | 2020 nM | 1900 nM | 34700 nM | 67300 nM |  |
| YCSNIKLQVV |  |  |  |  |  | IC50 (HLA-A*02:03; [9]): 802 nM; IC50 (HLA-A*68:02 [1]; [9]): 1170 nM; IC50 (HLA-A*02:02; [9]): 1240 nM; IC50 (HLA-A*02:01 [2]; [9]): 8600 nM; IC50 (HLA-A*02:06; [9]): 7130 nM |
| TLFYCDERDA | 2140 nM | 4920 nM | 271 nM |  | 19500 nM | IC50 (HLA-A*02:01 [3]; [5]): 238 nM |
| MLKLFTHDIM | 93 nM | 2000 nM | 85 nM |  | 20300 nM | IC50 (HLA-A*02:01 [3]; [5]): 1380 nM |
| LNQTVYSLV |  |  |  |  |  | IC50 (HLA-A*02:03; [10]): 1510 nM; IC50 (HLA-A*68:02 [1]; [10]): 262 nM; IC50 (HLA-A*02:02; [10]): 3330 nM; IC50 (HLA-A*02:01 [2]; [10]): 9250 nM; IC50 (HLA-A*02:06; [10]): 5100 nM |
| MAEFEDQLV | 641 nM | 674 nM | 165 nM |  | 5510 nM | IC50 (HLA-A*02:01 [3]; [5]): 2150 nM |
| IVSSYVCSGL |  |  |  |  |  | IC50 (HLA-A*02:03; [7]): 795 nM; IC50 (HLA-A*68:02 [1]; [7]): 767 nM; IC50 (HLA-A*02:02; [7]): 161 nM; IC50 (HLA-A*02:01 [2]; [7]): 6200 nM; IC50 (HLA-A*02:06; [7]): 12700 nM |
| YTKHSMLTNA | 141 nM | 1420 nM | 3900 nM | 38300 nM | 7340 nM |  |
| FTSYKRFVT | 3380 nM | 452 nM | 2330 nM | ≥ 70000 nM | 12400 nM |  |
| ITHTNITTLL | 101 nM | 311 nM | 1680 nM | 11900 nM | 14800 nM |  |
| YVEHDPRLV | 711 nM | 1930 nM | 1180 nM |  | 22600 nM | IC50 (HLA-A*02:01 [3]; [5]): 4740 nM |
